Data as given in the RNAGym collection of RNA variant scans (doi:10.1073/pnas.2313332121).
Fewer inactive variants are shown than the library holds.

B1: TPR 5TU (parent)
chain: GGAUCUUCUCGAUCUAACAAAAAAGACAAAUCUGCCACAAAGCUUGAGAGCAUCUUCGGAUGCAGAGGCGGCAGCCUUCGGUGGCGCGAUAGCGCCAACGUUCUCAACUAUGACACGCAAAACGCGUGCUCCGUUGAAUGGAGUUUAUCAUG

Variants of: B1
Assay: polymerase ribozyme fitness, log enrichment relative to wild type (log ratio); higher = more active; in vitro selection for triplet polymerase activity
Outline: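 One round of in vitro selection, in triplicate, was applied to PCR-built, transcribed mutant libraries of each subunit of a heterodimeric triplet polymerase ribozyme. The steps were annealing with a biotinylated primer, partner subunit and triplets, incubation frozen at −7 °C, gel excision of extended constructs, streptavidin-bead capture and RT-PCR. Fitness is the logarithm, base 2, of genotype enrichment over wild-type enrichment from inverse-variance-weighted replicate averages of Illumina-sequenced inputs and outputs, keeping genotypes with ≥10 input reads and ≥1 read per output.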

Compared with GGAUCUUCUCGAUCUAACAAAUAAGACAAAUCUGCCACAAAGCUUGAGAGCAUCUUCGGAUGCAGAGGCGGCAGCCUUCGAUGGCGCGAUAGCGCCAACGUUCUCCACUAUGACACGCAAAACGCGUACUCCGUUGAACGGAGUUUAUCAUG, GGAUCUUCUCGAUCUAACAAAUAAGACAAAUCUGCCACAAAGCUUGACAGUAUCUUCGGAUGCAGAGGCGGCAGCCUUCGGUGGCGCGAUAGCGCCAACGUUCUCAACUAUGACAGGCAAAACACGUGCUCCGUUGAAUGGAGUUUAUCGUG is lower in “polymerase ribozyme fitness (log ratio)” value: -3.92 for the first, no more than -4.2 for the second.

First: GGAUCUUCUCGAUCUAACAAAUAAGACAAAUCUGCCACAAAGCUUGAGAGCAUCAUCGGAUGCAGAGGCGGCAGCCUUCGGUGGGGCGAUAGCGCCAACGUUCUCAACUAUGACACGCAAAACGCGUGCUCCGUUGAAUGGAGUUUAUCAUG
Second: GGAUCUUCUCGAUCUAACAAAUAAGACAAAUCUACCACAAAGCUUGAGAGCAUCUUCGGAUGCAGAGGCGGCAUCCUUCGGUGGCGCGAUAGCACCAACGUUCUCAACUAUGACACGCCAAACGCGUGCUCCGUUGAAUGGAAUUUAUCAUG
The “polymerase ribozyme fitness (log ratio)” value of the first is higher: -2.29 for the first, no more than -4.2 for the second.

GGAUCUUCUCGAUCUAACAAAUAAGACAAAUCUACCACAAAGCUUGAGAGCAUCUUCGGAUCCAGAGCCGGCAGCCUUCGGUGGCGCGAUAGCGCAAACGUUCUCAACUAUGACACGCAAAACGCGUGCUCCGUUGAAUGGAGUUUAUCAUG and GGAUCUUCUCGAUCUAACAAAUAAGACAAAUCUGCCACAAAGCUUGAGAUCAUUUUCGGAUGCAGCGGCGGCAGCCUUCGGUGGCGCGAUGUCGCCAACGUUCUCAACUAUGACACGCAAAACGCGUGCUCCGUUGAGUGGAGUUUAUCAUG cannot be ordered by “polymerase ribozyme fitness (log ratio)” value: no more than -4.2 for the first, no more than -4.2 for the second.

Compared with GGAUCUUCUCGAUCUAACAAAUAAGACAAAUCUGCCACAAAGCUUGAGAGCAUCUUCGGAUGCAGAGGCGGCAGCCUUCGGUGGCCCGAUAGCGCCAACGUUCUCAACUAUGACACGCAAAACGCGUGCUCCGUUGAAUGGAGUUUAUCAUG, GGAUCUUCUCGAUCUAACAAAUAAGACAAAUCUGCCACAAAGCUUCAGAGCAUCUUCGGAUGCAGAGGCGGCUGCCUUCGGUGGCGCGAUAGCGCCAACGUUCUCAACUAUGACACGCAAAACGCGUGCUCCGUUGAAUGGAGUUUAUCAUG is lower in “polymerase ribozyme fitness (log ratio)” value: -3.34 for the first, -3.61 for the second.

Compared with GGAUCUUCUCGAUCUAACAAAUAAGACAAAUCUGCCACAAAGCUUGAGAGCAUCUUCGGAUGCAGAGGCGGCAGCCUUCGGUGGCGCGAUAGCGCCAACGUUCUCAACUAUGACACGCAAAACGCGUGCUCCCUUGAAUGGAGUUUAUCAUG, GGAUCUUCUCGAUCUAACAAAUAAGACAAAUCUGCCACAAAGCUAGAGAGCAUCUUCGGAUGCAGAGACGGCAGCCUUCGGUGGCGCGAUAGCGCCAACGUUCUCAACUAUGACACGCAAAGCGCGUGCUCCGUUGAAUUGAGUUAAUCAUG is lower in “polymerase ribozyme fitness (log ratio)” value: -1.46 for the first, no more than -4.2 for the second.

GGAUCUUCUCGAUCUAACAAAUAAGACAAAUCUGCCACAAACCUUGAGAGCAUCUUCGGAUGCAGAGGCGGCAGCCUUCAGUGGCGCGAUGGCGGCAUCGUUCUCAACUAUGACACGCAAAACGCGUGCUCCGUUGAAUGGAGUUUAUCAUG and GGAUCUUCUCGAUCUAACAAAUAAGACAAAUCUGCCACAAAGCUUGAGAGCAUCUUCAGCUGCAGAGGCGGCAGCCUUCGGUGGCGCGAUAGCGCCAACGUUCUCAACUAAGACACGCAAAACGCGUGCUCCGUUGAAUGGAGUUUAUCAUG cannot be ordered by “polymerase ribozyme fitness (log ratio)” value: no more than -4.2 for the first, no more than -4.2 for the second.

Compared with GGAUCUUCUCGAUCUAACAAAUAAGACAAACUUGCCACAAAGCUUGAGAGCAUCUUCGGAUGCAGAGGCGGCAGCCUUCGGUGGCGCGAUAGCGCCAACGUUCUCAACUAUGACACGCAAAACGCGUGCUCCGUUGAAUGGAGUUUAUCAUG, GGAUCUUCUCGAUCUAACAAAUAAGACAAAUCUGCCACAAAGCUUCAGAGCAUCUUCGGAUGCAGAGGCGGCAGCCUUCGGUGGCGCGAUAGCGCCAACGUUCUCAACUAUGAUACGCAAAACGCGUGCUCCGUUGAAUGGAGUUUAUCAUG is lower in “polymerase ribozyme fitness (log ratio)” value: -3 for the first, -3.67 for the second.

Going from GGAUCUUCUCGAUCUAACAAAUAAGACAAAUCUGCCACAAAGCUUGAGAGCAUCUUCGGAUGCAGAGGCGGCAGCCUUCGGUGGCGCGAUAACGACAACGUUCUUAACUAUGACACGCAAAACGCGUGCUCCGUUGAAUGGAGUUUAUCAUG to GGAUCUUCUCGAUCUAACAAAUAAGACAAAUCUGCCACAAAGCUUGAGAGCAUCUUCGGAUGCAGAGGCGGCAGCCUUCGGUGGCGCGAUAGCGCCAACGUUCUCAACUAUGACACGCAAAACGCAUGCUCCGUUGAAUGGAGUUUAUCAUG, the “polymerase ribozyme fitness (log ratio)” value rises from -3.63 to 1.07.

Going from GGAUCUUCUCGAUCUAACAAAUAAAACAAAUCUGCCACAACGCUUGAGAGCAUCUUCGGAUGCAGAGGCGGCAGCCUUCGGUGGCGCGAUGGCCCCAACGUUCUCAACUAUGACACGCAAAACGCGUGCUCCGUUGAAUGGAGUUUAUCAUG to GGAUCUUCUCGAUCUAACAAAUAAGACAAAGCUGCCACAAAGCUUGAGAGCAUGUUCGGAUGCAGAGGCGGCAGCCUUCGGUGGUGCGAUAGCGCCAACGUUCUCAACUAUGACACGCAAAACGCGUGCUCCGUUGAAUGGAGUUCAUCAUG, the “polymerase ribozyme fitness (log ratio)” value rises from no more than -4.2 to -0.611.

With GGAUCUUCUCGAUCUAACAAAUAAGACAAAUCUGCCACAAAGCUUGAGAGCAUCUACGGAUGCGGAGGCGGCAGCCUUCGGUGGCGCGAUAGCGCCAACGUUCUCAACUAUGACACGCAAAUGGCGUGCUCCGUUGAAUGGAGUUUAUCGUG the “polymerase ribozyme fitness (log ratio)” value was no more than -4.2.
